In PMC10570036, “Yeast transcription factor Msn2 binds to G4 DNA”:

Tests used:
[1] = biological target: T1, GST-Msn2(596-704) zinc-finger domain (Saccharomyces cerevisiae, UniProt P33748 596-704); test: EMSA; folded in 100 mM K+; EMSA: oligos (0.1 uM) folded in 10 mM Tris-HCl pH 7.5, 100 mM KCl or LiCl; binding in 10 mM Tris-HCl pH 8.0, 1 mM DTT, 0.01% NP-40, 5% glycerol, 50 uM ZnSO4, room temperature 30 min; pull-down: 400 pmol biotin oligo folded in 100 mM KCl or LiCl, streptavidin beads, yeast whole cell lysate; conditions: protein: recombinant, tags: N-terminal GST (pGEX4T1), label: 5' Cy5
T1 sequence: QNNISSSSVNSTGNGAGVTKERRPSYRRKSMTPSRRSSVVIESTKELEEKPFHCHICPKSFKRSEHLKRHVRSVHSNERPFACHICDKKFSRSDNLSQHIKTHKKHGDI

[2] = biological target: T1, GST-Msn2(596-704) zinc-finger domain; test: EMSA; folded in 100 mM K+; 50 uM Zn2+; EMSA: oligos (0.1 uM) folded in 10 mM Tris-HCl pH 7.5, 100 mM KCl or LiCl; binding in 10 mM Tris-HCl pH 8.0, 1 mM DTT, 0.01% NP-40, 5% glycerol, 50 uM ZnSO4, room temperature 30 min; pull-down: 400 pmol biotin oligo folded in 100 mM KCl or LiCl, streptavidin beads, yeast whole cell lysate; conditions: protein: recombinant, tags: N-terminal GST (pGEX4T1), label: 5' Cy5
[3] = biological target: T1, GST-Msn2(596-704) zinc-finger domain; test: EMSA; EMSA: oligos (0.1 uM) folded in 10 mM Tris-HCl pH 7.5, 100 mM KCl or LiCl; binding in 10 mM Tris-HCl pH 8.0, 1 mM DTT, 0.01% NP-40, 5% glycerol, 50 uM ZnSO4, room temperature 30 min; pull-down: 400 pmol biotin oligo folded in 100 mM KCl or LiCl, streptavidin beads, yeast whole cell lysate; conditions: protein: recombinant; tags: N-terminal GST (pGEX4T1); label: 5' Cy5 on sense strand; blunt
[4] = biological target: T1, GST-Msn2(596-704) zinc-finger domain; test: EMSA; folded in K+ or Li+; no significant interaction; EMSA: oligos (0.1 uM) folded in 10 mM Tris-HCl pH 7.5, 100 mM KCl or LiCl; binding in 10 mM Tris-HCl pH 8.0, 1 mM DTT, 0.01% NP-40, 5% glycerol, 50 uM ZnSO4, room temperature 30 min; pull-down: 400 pmol biotin oligo folded in 100 mM KCl or LiCl, streptavidin beads, yeast whole cell lysate; conditions: protein: recombinant; tags: N-terminal GST (pGEX4T1); label: 5' Cy5; G4
[5] = biological target: T1, GST-Msn2(596-704) zinc-finger domain; test: EMSA; 100 mM K+; EMSA: oligos (0.1 uM) folded in 10 mM Tris-HCl pH 7.5, 100 mM KCl or LiCl; binding in 10 mM Tris-HCl pH 8.0, 1 mM DTT, 0.01% NP-40, 5% glycerol, 50 uM ZnSO4, room temperature 30 min; pull-down: 400 pmol biotin oligo folded in 100 mM KCl or LiCl, streptavidin beads, yeast whole cell lysate; conditions: protein: recombinant; tags: N-terminal GST (pGEX4T1); label: 5' Cy5 on sense strand; blunt

GAGCTGGGGTGAGCTGGGCTGAGCTGGGGTGAGCTGGGCTGAGCT (structured_DNA) [Cy5-SµG]
binding result ([1]; G4): binds

ATTCTTGGGGCTGGGGTCCCTTGGGGAACTGTATTGGGTGAACC (structured_DNA) [Cy5-ATG7 G4]
binding result ([1]; G4): binds

CCGCTGGGCAGGTCAGGGCAGGGGCTCTCAGGGGGGCGCCA (structured_DNA) [Cy5-TPS1pG4]
binding result ([1]; G4): binds

TGGGTGTTGTTGGGGGAGGGAAATGGGT (structured_DNA) [Cy5-BRCA1-G3]
Kd ([2]; parallel G4 in K+): 37.8 ± 11.4 nM

GGGCGGGCGCGAGGGAGGGG (structured_DNA) [Cy5-c-KIT2]
binding result ([1]; G4): no binding

B1: dsCTT1STREMut (dsDNA)
DNA 1: CTCTTTTTCATGTGTATCACCGGTATGTGTCCAATCTGTG
DNA 2: CACAGATTGGACACATACCGGTGATACACATGAAAAAGAG
binding result [3]: no binding

GGACCGGGGGCACACCGGGGTAGGGGGTCCGGAGGGTTAAC (structured_DNA) [Cy5-ATG39pG4]
Kd ([2]; intramolecular parallel G4): 30.2 ± 7.2 nM

CCCGGGCGGGCGCGAGGGAGGGGAGG (structured_DNA) [c-KIT2Long]
binding result [4]: no binding

CCGCTGAGCAGGTCAGAGCAGAGACTCTCAGAGAGACGCCA (ssDNA) [Cy5-TPS1pG4Mut]
binding result [1]: no binding

GGACCGAGAGCACACCGAGATAGAGAGTCCGGAGAGTTAAC (ssDNA) [Cy5-ATG39pG4Mut]
binding result [1]: no binding

B2: dsCTT1 (dsDNA)
DNA 1: CTCTTTTTCAAGGGGATCACCGGTAAGGGGCCAATCTGTG
DNA 2: CACAGATTGGCCCCTTACCGGTGATCCCCTTGAAAAAGAG
binding result [5]: binds
